B1: MHV spike ectodomain (S-e), strain A59 (domain or fragment)
chain: YIGDFRCIQLVNSNGANVSAPSISTETVEVSQGLGTYYVLDRVYLNATLLLTGYYPVDGSKFRNLALRGTNSVSLSWFQPPYLNQFNDGIFAKVQNLKTSTPSGATAYFPTIVIGSLFGYTSYTVVIEPYNGVIMASVCQYTICQLPYTDCKPNTNGNKLIGFWHTDVKPPICVLKRNFTLNVNADAFYFHFYQHGGTFYAYYADKPSATTFLFSVYIGDILTQYYVLPFICNPTAGSTFAPRYWVTPLVKRQYLFNFNQKGVITSAVDCASSYTSEIKCKTQSMLPSTGVYELSGYTVQPVGVVYRRVANLPACNIEEWLTARSVPSPLNWERKTFQNCNFNLSSLLRYVQAESLFCNNIDASKVYGRCFGSISVDKFAVPRSRQVDLQLGNSGFLQTANYKIDTAATSCQLHYTLPKNNVTINNHNPSSWNRRYGFNDAGVFGKNQHDVVYAQQCFTVRSSYCPCAQPDIVSPCTTQTKPKSAFVNVGDHCEGLGVLEDNCGNADPHKGCICANNSFIGWSHDTCLVNDRCQIFANILLNGINSGTTCSTDLQLPNTEVVTGICVKYDLYGITGQGVFKEVKADYYNSWQTLLYDVNGNLNGFRDLTTNKTYTIRSCYSGRVSAAFHKDAPEPALLYRNINCSYVFSNNISREENPLNYFDSYLGCVVNADNRTDEALPNCDLRMGAGLCVDYSKSRRAHRSVSTGYRLTTFEPYTPMLVNDSVQSVDGLYEMQIPTNFTIGHHEEFIQTRSPKVTIDCAAFVCGDNTACRQQLVEYGSFCVNVNAILNEVNNLLDNMQLQVASALMQGVTISSRLPDGISGPIDDINFSPLLGCIGSTCAEDGNGPSAIRGRSAIEDLLFDKVKLSDVGFVEAYNNCTGGQEVRDLLCVQSFNGIKVLPPVLSESQISGYTTGATAAAMFPPWSAAAGVPFSLSVQYRINGLGVTMNVLSENQKMIASAFNNALGAIQDGFDATNSALGKIQSVVNANAEALNNLLNQLSNRFGAISASLQEILTRLEAVEAKAQIDRLINGRLTALNAYISKQLSDSTLIKVSAAQAIEKVNECVKSQTTRINFCGNGNHILSLVQNAPYGLYFIHFSYVPISFTTANVSPGLCISGDRGLAPKAGYFVQDDGEWKFTGSSYYYPEPITDKNSVIMSSCAVNYTKAPEVFLNTSIPNPPDFKEELDKWFKNQTSIAPDLSLDFEKLNVT
notes: also called MHV S-e; recombinant MHV S-e; not shown: GCN4 trimerization tag, C-terminal, kept; His6, C-terminal, kept

What was measured:
[1] = target: MHV spike ectodomain (S-e), strain A59 (mouse hepatitis coronavirus (MHV), strain A59) (UniProt P11224); assay: cryo-EM structure
[2] = target: MHV spike ectodomain (S-e), strain A59 (mouse hepatitis coronavirus (MHV), strain A59) (UniProt P11224)
cryo-EM structure = target: the molecule itself; assay: cryo-EM structure

| Molecule | stoichiometry N (CEACAM1a molecules per S-e trimer) [1] | negative-stain EM: share of S-e molecules in the post-fusion conformation after high concentration of trypsin with CEACAM1a (11.75% without CEACAM1a) [2] [%] | stoichiometry N (cryo-EM structure) |
| --- | --- | --- | --- |
| Mouse CEACAM1a ectodomain (D1-D4), C-terminal His6 tag (receptor) | 3 | 50.9 | – |
| B1 | – | – | 3 |

Source: paper PMC7082060, “Structure of mouse coronavirus spike protein complexed with receptor reveals mechanism for viral entry” (PLoS Pathogens, 2020)
